Results taken from publication PMC13148777.

What was measured:
[1] = molecular target: HAdV-D10 fiber protein (human adenovirus D 10 (HAdV-D10)); test: cryo-EM structure; purified HAdV-D10 virions; symmetry expansion, focused classification and refinement of penton and fiber shaft without symmetry (C1); 4.6 Å global, fiber shaft about 10 Å; AlphaFold3 fiber-penton model fitted as a rigid body
[2] = molecular target: HAdV-D10 penton base (human adenovirus D 10 (HAdV-D10)); test: as above

| Substance | stoichiometry N [1] | stoichiometry N [2] |
| --- | --- | --- |
| HAdV-D10 fiber protein (natural protein) | 3 | – |
| HAdV-D10 penton base (natural protein) | – | 5 |
